Reference: patent US20030044789A1, “Identification and quantification of a protein carrying an N-terminal polyhistidine affinity tag” (priority 2000, published 2003)

Test system: Penta-His antibody
Assay: Competition study with HisTagged proteins (HisTag FPIA)
Assay type: binding
Conditions: 1-2 nM fluor-AHHHHHHG, 10 nM Penta-His antibody, approx. 60 min at room temperature; read-out: approximate IC50 (concentration of competitor required to decrease FP signal by 50%)
Method: Purified N-terminal HisTagged proteins were serially diluted into PBS +0.01% NP-40 in a multiwell plates. 1-2 nM fluorescein labeled peptide (fluor-AHHHHHHG) and 10 nM of Penta-His antibody were then added to each reaction to a final volume of 50-100 ul. After approximately 60 min incubation at room temperature to insure equilibrium binding, the polarization was measured on a Tecan Polarian multiwell instrument.
Protein Kinase A (PKA) is a serine/threonine kinase, ZAP-70 is a tyrosine kinase, and the Estrogen Receptor Ligand Binding Domain (ER-LBD) is comprised of the C-terminal 300 amino acids of ERα; all three proteins were highly purified and active.

IC50: ~36 nM
B1: ZAP-70: recombinant human tyrosine kinase with N-terminal six-histidine fusion (protein, UniProt P43403 1-619, looked up)
Tyrosine-protein kinase ZAP-70: MPDPAAHLPFFYGSISRAEAEEHLKLAGMADGLFLLRQCLRSLGGYVLSLVHDVRFHHFPIERQLNGTYAIAGGKAHCGPAELCEFYSRDPDGLPCNLRKPCNRPSGLEPQPGVFDCLRDAMVRDYVRQTWKLEGEALEQAIISQAPQVEKLIATTAHERMPWYHSSLTREEAERKLYSGAQTDGKFLLRPRKEQGTYALSLIYGKTVYHYLISQDKAGKYCIPEGTKFDTLWQLVEYLKLKADGLIYCLKEACPNSSASNASGAAAPTLPAHPSTLTHPQRRIDTLNSDGYTPEPARITSPDKPRPMPMDTSVYESPYSDPEELKDKKLFLKRDNLLIADIELGCGNFGSVRQGVYRMRKKQIDVAIKVLKQGTEKADTEEMMREAQIMHQLDNPYIVRLIGVCQAEALMLVMEMAGGGPLHKFLVGKREEIPVSNVAELLHQVSMGMKYLEEKNFVHRDLAARNVLLVNRHYAKISDFGLSKALGADDSYYTARSAGKWPLKWYAPECINFRKFSSRSDVWSYGVTMWEALSYGQKPYKKMKGPEVMAFIEQGKRMECPPECPPELYALMSDCWIYKWEDRPDFLTVEQRMRACYYSLASKVEGPPGSTQKAEAACA
modifications: N-terminal polyhistidine tag
